Laboratory results reported in patent US8394380B2, “Compositions and methods for alzheimer's disease” (Primex Clinical Laboratories, Inc., priority 2004, dated 2013).
Like-named read-outs stand apart in the source and are kept apart here. Positions of bridges follow the written chain, without caps; N, C: chain ends. No end group written: not given here.

Legend:
[1] = tested on: primary cultures of hippocampal neurons and mixed cortical neurons; conditions: cited from earlier work
[2] = tested on: rat cultured hippocampal neurons
Procedure: (§2) Primary cultures of hippocampal neurons were prepared from 17-18 day gestational Wistar rat embryos as described previously (Brewer et al., 1993) with some modifications (Massieu et al., 2003). Briefly, after dissection, 10-12 hippocampi were chopped into 300-μm cubes, incubated in a 0.25% trypsin solution, and dispersed by trituration in a 0.08% DNAase and 0.52% soybean trypsin inhibitor containing solution. Cells were suspended in Neurobasal culture medium (GIBCO/Life technologies, Rockville Md., USA) (Brewer et al. 1993) supplemented with B27 (Minus AO GIBCO/life technologies, Rockville, Md., USA), 0.5 mM L-glutamine, 20 μg/ml gentamicin, and 0.2 mM glutamate, and plated at a density of 260-290×10^3/cm^2 in Costar 48-well plates (Cambridge, Mass., USA), precoated with poly-L-lysine (5 μg/ml). Cells were cultured for 6 days in vitro (DIV) at 37° C. in a humidified 5% CO2/95% air atmosphere. Glucose (5 mM) and cytosine arabinoside (10 μM) were added to cultures 4 days after plating.
(§3) The effect of individual treatments of the different peptides on cell viability was also tested. Aβ42 was pre-incubated at 37° C. during 48 h to promote its aggregation and increase neurotoxicity. Cell viability was assessed by the MTT (3-(4,5-dimethylthiazol-2-yl)-2,5-diphenyltetrazolium bromide) dye reduction assay (Mosmann, 1983) as previously described (Garcia and Massieu, 2001). The assay is based on the ability of living mitochondria to convert MTT into insoluble formazan by active dehydrogenases.
(§4) In brief, 72 h after exposure to Aβ42, cell cultures were incubated with MTT (150 μM) during a 1 h period at 37° C. in a 5% CO2/95% O2-containing atmosphere. The medium was aspirated, and the precipitated formazan was solubilized with 0.480 ml isopropanol. After solubilization, isopropanol was transferred to eppendorf tubes, centrifuged (18 000 rpm for 30 s) and the optical density in the supernatant measured at 570 nm in a spectrofluorometer (Beckman DU-640). Cell damage was expressed as percent reduction in mitochondrial activity relative to control cultures. Data were expressed as means±SE (standard error) of 4 independent experiments.

[3] = tested on: rat cultured hippocampal neurons; experiment: Neuroprotection assay, Aβ42-induced neurotoxicity, MTT reduction
Procedure: as §2, §3, §4

Aβ42 [4] = target: T1, Aβ42 (Homo sapiens, UniProt P05067); experiment: ELISA using CDR-based synthetic peptides: biotinylated Aβ42 added to peptide-coated plates; type: binding
Procedure: ELISA analysis was carried out using MaxiSorp microtiter plates coated overnight with synthetic peptide at a concentration of 10 μg/ml in carbonate buffer. After washing, plates were blocked with PBS/2% BSA for 1 h at 37° C. After incubation and a washing step, biotinylated Aβ42 was added to each well. Plates were again incubated for 1 h at 37° C., washed, and reacted with an avidin-peroxidase conjugate diluted 1:500 (Pharmingen, San Jose, Calif., USA) followed by the ABTS single solution (Zymed) as described above.

Aβ42 [5] = target: T1, Aβ42; experiment: Competition ELISA: binding of biotinylated Aβ42 to immobilized cyclic C44; conditions: competitor pre-incubated with biotinylated Aβ42 overnight at 4° C., N44 linear
Procedure: For competition ELISA, cyclic C44 and linear N44 were diluted in PBS/1% BSA and incubated with biotinylated Aβ42 overnight at 4° C. prior to addition to plates coated with cyclic C44.

[6] = target: T2, Flemish (A21G) mutant Aβ42 (Homo sapiens, UniProt P05067, A692G); experiment: ELISA binding of phage-displayed scFv to Flemish mutant Aβ42; conditions: control wild type phage M13
T2 construct: mutant Aβ42 (SynPep Corp., CA, USA); purchased SynPep Corp
Procedure: (§1) Microtiter plates were coated with Aβ42 and blocked as described above, 10^10 of each phage clone were added, and after incubation for 1 h at 37° C., plates were washed with PBS/Tween. An anti-M13 monoclonal HRP (horseradish peroxidase) conjugate (Amersham Pharmacia Biotech, USA) diluted in PBS/1% BSA was then added to the plates followed by an incubation for 1 h 37° C. Plates were washed and the ABTS (2,2′-azino-bis(3-ethylbenzothiazoline-6-sulfonic acid) single solution (Zymed, San Francisco, Calif., USA) was added. The OD 405 nm readings were measured using Opsys MR Microplate Reader (DYNEX Technologies, Inc., Chantilly, Va., USA). An identical ELISA procedure was performed using Flemish (containing an A to G substitution at aa21; i.e. A21G) and Dutch (containing an E to Q substitution at aa22; E22Q) mutant Aβ42 (SynPep Corp., CA, USA).

Aβ1-28 = Aβ1-28 (Homo sapiens, UniProt P05067); experiment: ELISA binding of phage-displayed scFv to Aβ1-28; conditions: control wild type phage M13
Dutch (E22Q) mutant Aβ42 = target: T3, Dutch (E22Q) mutant Aβ42 (Homo sapiens, UniProt P05067, E693Q); experiment: ELISA binding of phage-displayed scFv to Dutch mutant Aβ42; conditions: control wild type phage M13
T3 construct: mutant Aβ42 (SynPep Corp., CA, USA); purchased SynPep Corp
Procedure: as §1

human Aβ42 (wild-type) = target: T4, human Aβ42 (wild-type) (Homo sapiens, UniProt P05067); experiment: ELISA binding of phage-displayed scFv / serum to Aβ42-coated wells; conditions: control wild type phage M13
T4 construct: coated overnight with 2 μg/ml of wild-type Aβ42 (BACHEM Bioscience Inc); purchased BACHEM Bioscience Inc
Procedure: One week after the fourth immunization, mouse sera were tested in ELISA for the presence of specific anti-Aβ42 antibodies. Briefly, a 96-well plate (Nunc, Roskilde, Denmark) was coated with 1 μg/ml of Aβ42 in phosphate buffer (pH 7.8) overnight at 4° C. The plate was washed with phosphate buffer containing 0.1% Tween-20 (PBS-Tween) and blocked with PBS containing 2% bovine serum albumin (PBS-BSA). After washing, mouse sera diluted in PBS-BSA 1% was added, and the plate was incubated for 1 h at 37° C. The plate was washed and goat anti-mouse IgG conjugated with HRP (Zymed, San Francisco, Calif., USA) was added. After incubation for 1 h at 37° C., the plate was washed and 2,2′-azino-bis-(3-ethyl-benzothiazoline-6-sulphonic acid (ABTS) single solution (Zymed) was added. The OD reading at 405 was registered using Opsys MR Microplate Reader (DYNEX Technologies, Chantilly, Va., USA).
Fresh 2×YT without glucose but supplemented with ampicillin and kanamycin was added to each well, and plates were incubated overnight at 30° C. with shaking Microtiter plates (Nunc) were coated with Aβ and blocked as described above, supernatants from plates containing phage were added, and after incubation for 1 h at 37° C., plates were washed with PBS-Tween. […] The OD reading at 405 was registered using Opsys MR Microplate Reader (DYNEX Technologies). […]

[7] = plates coated with peptide 10 μg/ml
[8] = peptide in cyclic form, 40 μM with Aβ42 40 μM, 72 h
[9] = peptide in linear form, 40 μM with Aβ42 40 μM, 72 h

Molecule: CC[C@H](C)C(=O)O[C@H]1C[C@@H](C)C=C2C=C[C@H](C)[C@H](CC[C@@H]3C[C@@H](O)CC(=O)O3)[C@H]21 [lovastatin]
- intracellular and extracellular levels of Aβ [1]: reduce

Molecule: ASVRGWYVRSVFDPA [N44]
- effect of peptide alone on basal MTT reducing capacity [2]: Neither N44 nor C44 (either the linear or cyclic forms) alone altered basal MTT reducing capacity

Molecule: Aβ42: human amyloid-beta peptide, pre-aggregated, used as neurotoxic insult [reference compound]
- decrease in mitochondrial activity ([3]; Aβ42 40 μM alone, 72 h): 24.3%

Molecule: CADWRYRSVFGPVSVAC (disulfide 1-17 (inferred)) [Scr44, reference compound]
- OD405, binding of biotinylated Aβ42 to coated peptide (Aβ42 [4]; peptide in cyclic form, negative control): 0.25±0.03
- binding to Aβ42 in ELISA (Aβ42 [4]; [7]): did not bind

Molecule: CASVRGWYVRSVFDPAC (cyclic or linear) [C44]
- inhibition of binding of Aβ42 to immobilized cyclic C44 (Aβ42 [5]): inhibited, in a dose dependent manner
- effect of peptide alone on basal MTT reducing capacity ([3]; peptide alone, without Aβ42): Neither N44 nor C44 (either the linear or cyclic forms) alone altered basal MTT reducing capacity
- neuroprotective effect ([3]; peptide in cyclic form): 53.6%
- decrease in mitochondrial activity when co-incubated with Aβ42 [3, 8]: 11.9%
- protection against Aβ42 neurotoxicity [3, 8]: showed protection
- neuroprotective effect ([3]; peptide in linear form): 69.3%
- prevention of Aβ42 neurotoxicity [3, 9]: significantly prevented
- reduction in mitochondrial activity when co-incubated with Aβ42 [3, 9]: 7.7%
- binding to Aβ42 in ELISA (Aβ42 [4]; cyclic peptide, S—S bond reduced with β-mercaptoethanol): abolished completely
- binding to Aβ42 in ELISA (Aβ42 [4]; linear form after spontaneous air oxidation, overnight agitation): restored
- binding to Aβ42 in ELISA (Aβ42 [4]; peptide in cyclic form): recognized
- binding to Aβ42 in ELISA (Aβ42 [4]; peptide in its linear form): weak recognition

Molecule: IWGCSGKLICTTAVP (not fully specified (bridges); also: cyclic, ring type not given here) [GM15, reference compound]
- binding to Aβ42 in ELISA (Aβ42 [4]; [7]): did not bind

B1: b4.6: phage-displayed human anti-Aβ42 scFv, SEQ ID NO:12, HCDR3 SHYWDS (protein)
scFv: QVQLQESGPGLVKPSETLSLTCSVSGGSVSSGNYYWTWIRQPPGKGLEWIGYIYSSGSTSYNPSLMSRVTISLDMSKNQFSLRLTSVTAADTAVYYCARSHYWDSWSPGTLVTVSSGGGGSGGGGSGGGGSDIVMTQSPSSMSASVGDTVTIACRASRDIRNDLAWYQQKPGKAPKLLIYAASRLQSGVPSRFSGSGSFTDFTLTIQLCLQPDDFATYYCLQDSDYPLTFGGGTKLEIKR
- binding to Flemish mutant Aβ42 in ELISA [6]: bound
- binding to Aβ1-28 in ELISA (Aβ1-28): not statistically different from control phage M13
- binding to Dutch mutant Aβ42 in ELISA (Dutch (E22Q) mutant Aβ42): not statistically different from control phage M13
- binding to wild type Aβ42 in ELISA (human Aβ42 (wild-type)): bound
